Laboratory results from patent publication US20230213527A1, “COMPOSITIONS AND METHODS FOR POLYPEPTIDE ANALYSIS” (Quantum-Si Incorporated, priority 2021, published 2023).
Square brackets hold non-standard residues; d marks the D form. Ends that are not written are not given here. Cit = NC(=O)NCCC[C@H](N)C(=O)O

How the values were obtained:
PS610 = assay: Dynamic single-molecule sequencing, recognition by PS610; type: binding, A. tumefaciens; conditions: for Pulse Width: recognizer PS610, recognition of the N-terminal amino acid; for Median PD: peptide LAQFASIAAYASDDD, PS610 and PS961, PhTET2 and PhTET3; for Median pulse duration of tyrosine recognition by PS610: P38MAPKa-derived peptides, PS610, PS961, PS621
Procedure: The semiconductor chip was placed in the sequencing device and a chip check was performed to test electronic circuit function and to optimize laser coupling alignment. The chip was then removed from the device socket and the chip was washed twice with 50 μL of 70% isopropanol, followed by four washes with 30 μL of wash buffer (50 mM MOPS pH 8.0, 60 mM potassium acetate, 50 mM glucose, 20 mM magnesium acetate, and surfactant mix) through a flow cell attached to the chip. A second chip check was then performed. […] The chip was then washed six times with wash buffer, followed by addition of an imaging solution (wash buffer with 5 mM Trolox and an oxygen scavenging system). The laser was unblocked and the occupancy percentage (target 10-30%, Poisson distributed) was recorded by acquiring a photobleaching signal from a fluorophore attached to the peptide complex during 5 min of laser illumination. […] The laser was then blocked briefly and aminopeptidases were added to the sequencing reaction via the flow cell and mixed thoroughly (final concentration 2-8 μM PhTET2 and/or 20-80 μM PhTET3, as indicated according to the experiment). The laser was then unblocked, and data was recorded for 10 hours. For all runs, 30 μL of mineral oil was added to fluid reservoirs at each port of the flow cell to prevent evaporation during the run.
(§1) The measured signal on-chip comprises various noise components, the most dominant one being due to fluorescent emissions from diffusing recognizers in the reaction chamber. The pulse caller algorithm for a given reaction chamber starts by estimating the statistical properties of this background noise component. Once an estimate within certain error bounds has been established, the algorithm works in an online fashion observing new frames of data as they are generated. At each point in time, the algorithm maintains state indicating whether the signal is due to the background component only or a pulse from a recognizer-NAA interaction is being observed. The state transition from background to pulse is triggered using an edge detection test where the shift in signal is expected to be significant with respect to the background component's statistical distribution. The state transition from pulse to background is triggered when a small window of the most recent frames of the signal appears to conform to the background component's distribution again. The algorithm maintains an updated model of the background component as new background frames are observed. This provides robustness against drift in the signal intensity together with a feedback control loop that maintains a stable optical coupling of the laser into the chip based on any such detected drift. As detected pulses can be due to true recognizer-to-dipeptide interaction events as well as other occasional transient noise spikes, a downstream filter layer is employed to test the significance of pulse events based on their duration, intensity, and noise patterns within the context of the full timeline of the run and the entire dataset of reaction chambers.
Initial regions are determined by performing a sliding window calculation of pulse rate along the time dimension of a series of pulses. Regions with a mean pulse rate >1 pulse/min are then subdivided according to a greedy bisection approach. Here, the pulses on the left and right of each potential split are assessed for statistically significant deviation in any of four separate pulse properties—intensity, bin ratio, pulse duration, and interpulse duration—using a Mann-Whitney U Test. To define RSs, the split point with the lowest p-value for any of the four properties is used to sub-divide the region and the process continues until no regions remain with a candidate split point with p-value <10^−5 in any comparison. In this manner, transitions from one RS to the next in a region of continuous pulsing are determined a priori on the basis of changes in fluorescence properties of pulsing kinetics.

PS961 = assay: Dynamic single-molecule sequencing, recognition by PS961; type: binding, Planctomycetes; conditions: for Median PD, recognition of N-terminal leucine by PS961: peptides RLAFAYPDDD, RLIFAYPDDD, RLVFAYPDDD; for RS mean PD, N-terminal leucine by PS961 / RS mean duration for leucine recognition: leucine followed by threonine or phosphothreonine
PS961, sequence (as listed by the source): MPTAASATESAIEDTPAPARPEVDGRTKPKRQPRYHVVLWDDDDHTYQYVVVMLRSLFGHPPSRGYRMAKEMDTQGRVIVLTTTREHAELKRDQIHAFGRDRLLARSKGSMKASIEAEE
Procedure: The semiconductor chip was placed in the sequencing device and a chip check was performed to test electronic circuit function and to optimize laser coupling alignment. The chip was then removed from the device socket and the chip was washed twice with 50 μL of 70% isopropanol, followed by four washes with 30 μL of wash buffer (50 mM MOPS pH 8.0, 60 mM potassium acetate, 50 mM glucose, 20 mM magnesium acetate, and surfactant mix) through a flow cell attached to the chip. A second chip check was then performed. The laser was then blocked via an integrated software-controlled shutter, peptide complex was added to a final concentration of 1-10 nM and mixed thoroughly, and the chip was incubated for 15 min. The chip was then washed six times with wash buffer, followed by addition of an imaging solution (wash buffer with 5 mM Trolox and an oxygen scavenging system). The laser was unblocked and the occupancy percentage (target 10-30%, Poisson distributed) was recorded by acquiring a photobleaching signal from a fluorophore attached to the peptide complex during 5 min of laser illumination. For NAA recognition-only assays, after peptide loading, labeled recognizer was added to a final concentration of 50 nM PS610, 100 nM PS691, or 250 nM PS961 (as indicated according to the experiment), and data was recorded for 10 hours. For dynamic sequencing assays, after peptide loading, a mixture of labeled recognizers was added to obtain final concentrations of 50 nM PS610, 100 nM PS691, and 250 nM PS961. Data was recorded for 15 min. The laser was then blocked briefly and aminopeptidases were added to the sequencing reaction via the flow cell and mixed thoroughly (final concentration 2-8 μM PhTET2 and/or 20-80 μM PhTET3, as indicated according to the experiment). The laser was then unblocked, and data was recorded for 10 hours. For all runs, 30 μL of mineral oil was added to fluid reservoirs at each port of the flow cell to prevent evaporation during the run.
as §1
Initial regions are determined by performing a sliding window calculation of pulse rate along the time dimension of a series of pulses. Regions with a mean pulse rate >1 pulse/min are then subdivided according to a greedy bisection approach.

PS621 = molecular target: T1, PS621 (Kluyveromyces lactis, UniProt O60014, E174T/N105S/N176F/R116K/S153T/V146T); assay: Dynamic single-molecule sequencing, recognition by PS621; type: binding; conditions: for PW of R-X / RS R-X: unmodified arginine peptide; for PW of R-X / PW of ADMA-X / RS ADMA-X / RS R-X: average of 10 sequencing reactions; for PW of ADMA-X / RS ADMA-X: ADMA peptide; for RS ADMA-X / RS R-X: RS duration; for Median interpulse duration (IPD) of arginine recognition by PS621 / Binding with the recognizer PS621: P38MAPKa-derived peptides; for Binding with the recognizer PS621: residue at position 2
T1 construct: PS621; […]
T1 sequence (O60014 other isoform, or with tags, fused parts or gaps N105S/R116K/V146T/S153T/E174T/N176F): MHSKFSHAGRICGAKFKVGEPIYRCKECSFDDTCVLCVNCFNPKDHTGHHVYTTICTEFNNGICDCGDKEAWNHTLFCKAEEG
Source text: PTM detection involved isolating peptides and subjecting them to a real-time single-molecule protein sequencing reaction. Proteins were first digested into peptide fragments and conjugated C-terminally to macromolecular linkers. The peptide complexes were immobilized at the bottom of nanoscale wells on a semiconductor chip, resulting in single peptide molecules with exposed N-termini ready for sequencing. During the sequencing reaction, the surface-immobilized peptides were exposed to a solution containing dye-labeled NAA recognizers that bound on and off to their cognate NAAs with characteristic kinetic properties. Aminopeptidases in solution sequentially removed individual NAAs to expose subsequent amino acids for recognition. Fluorescence lifetime, intensity, and kinetic data were collected in real time and analyzed to determine amino acid sequence and PTM content.
The trace-level output included distinct pulsing regions called recognition segments (RSs); each RS corresponded to a period of time between aminopeptidase cleavage events during which an NAA recognizer bound on and off to its exposed target NAA. Chemical modifications to a target NAA or to a nearby downstream amino acid can modulate recognizer affinity, resulting in a characteristic change in the average pulse duration (PD) during an RS relative to an unmodified peptide. These modifications can also influence the rate of aminopeptidase cleavage of an NAA, resulting in a characteristic change in average duration of the corresponding RS.
Synthetic peptides corresponding to residues 69 to 76 of P38MAPKa were generated in three versions containing either arginine, ADMA, or SDMA at position 2: YRELRLLK (SEQ ID NO: 834), YRADMAELRLLK (SEQ ID NO: 835), and YRSDMAELRLLK (SEQ ID NO: 836). Each peptide was sequenced using three recognizers—PS610 (F, Y, W), PS961 (L, I, V), and PS621 (R)—and data were analyzed to identify RSs, determine the mean PD of each RS, and characterize the kinetic signature of each peptide.
In this example, sequencing reactions were performed using PS621 (R), PS610 (FYW), and PS961 (LIV) recognizers for 9 pairs of peptides. Each pair comprised one peptide comprising an unmodified arginine residue followed by a non-arginine amino acid (referred to as an R-X peptide) and one peptide having an identical sequence except that the unmodified arginine was modified to be ADMA (referred to as an ADMA-X peptide).

FCitLAFAYPDDDK (F[Cit]LAFAYPDDDK-NH2; also: C-terminal azidolysine (general statement for all synthetic peptides)) [QP1029]
Pulse Width (PS610): 5.24 s

FRLAFAYPDDDK (FRLAFAYPDDDK-NH2; not fully specified (residue 2); also: all synthetic peptides contained C-terminal Fmoc-azidolysine) [QP1028]
Pulse Width (PS610): 4.94 s

LAQFASIAAYASDDD
Median PD (PS610; listed as FAS): 1.43 s | Median PD (PS610; listed as YAS): 0.66 s | Median PD (PS961; peptide LAQFASIAAYASDDD, PS610 and PS961, PhTET2 and PhTET3): 2.70 s

LRAAFAYPDDDK [QP747]
PW of R-X (PS621): <0.12 s

LRADMAAAFAYPDDDK [QP743]
PW of ADMA-X (PS621): 0.19 s

LRADMAEAFAYPDDDK [QP939]
PW of ADMA-X (PS621): 0.34 s

LRADMAIAFAYPDDDK [QP745]
PW of ADMA-X (PS621): 0.32 s | RS ADMA-X (PS621): 46.9 min

LRADMALAFAYPDDDK [QP729]
PW of ADMA-X (PS621): 0.48 s | RS ADMA-X (PS621): 48.5 min

LRADMAQAFAYPDDDK [QP944]
PW of ADMA-X (PS621): 0.21 s

LRADMASAFAYPDDDK [QP744]
PW of ADMA-X (PS621): 0.55 s

LRADMATAFAYPDDDK [QP945]
PW of ADMA-X (PS621): <0.06 s

LRADMAVAFAYPDDDK [QP946]
PW of ADMA-X (PS621): 0.32 s | RS ADMA-X (PS621): 33.8 min

LRADMAYAFAYPDDDK [QP742]
PW of ADMA-X (PS621): 0.25 s | RS ADMA-X (PS621): 39.2 min

LREAFAYPDDDK [QP938]
PW of R-X (PS621): <0.06 s

LRIAFAYPDDDK [QP749]
RS R-X (PS621): 15.4 min | PW of R-X (PS621): 0.28 s

LRQAFAYPDDDK [QP941]
PW of R-X (PS621): <0.06 s

LRSAFAYPDDDK [QP748]
PW of R-X (PS621): <0.12 s

LRTAFAYPDDDK [QP942]
PW of R-X (PS621): <0.06 s

LRVAFAYPDDDK [QP943]
RS R-X (PS621): 25.5 min | PW of R-X (PS621): 0.41 s

LRYAFAYPDDDK [QP746]
RS R-X (PS621): 9.6 min | PW of R-X (PS621): 0.18 s

RLAFAYPDDD
Median PD, recognition of N-terminal leucine by PS961 (PS961): 1.29 s

RLIFAYPDDD
Median PD, recognition of N-terminal leucine by PS961 (PS961): 2.22 s

RLMFAYPDDD (not fully specified (residue 3, C-terminus); also: all synthetic peptides contained C-terminal Fmoc-azidolysine)
Median PD of leucine recognition, first population of traces (PS961; leucine followed by methionine (LM)): 0.86 s | Median PD of leucine recognition, second population of traces (PS961; methionine not recognized, oxidized (LMo)): 0.35 s

RLTFIAYPDDD (not fully specified (residue 3, C-terminus); also: all synthetic peptides contained C-terminal Fmoc-azidolysine)
RS mean PD, N-terminal leucine by PS961 (PS961): 1.2 s | RS mean duration for leucine recognition (PS961): 8.1 min

RLVFAYPDDD
Median PD, recognition of N-terminal leucine by PS961 (PS961): 4.21 s

RLpTFIAYPDDD
RS mean PD, N-terminal leucine by PS961 (PS961): 0.3 s | RS mean duration for leucine recognition (PS961): 130 min

YCitIAFAYPDDDK (Y[Cit]IAFAYPDDDK-NH2; also: C-terminal azidolysine (general statement for all synthetic peptides)) [QP1031]
Pulse Width (PS610): 1.12 s

YRADMAE (YRELRLLK) [YRADMAELRLLK, P38MAPKa peptide with asymmetric dimethylarginine at position 2]
Median pulse duration of tyrosine recognition by PS610 (PS610): 1.47 s | Median interpulse duration (IPD) of arginine recognition by PS621 (PS621): 5.82 s | Binding with the recognizer PS621 (PS621): binding

YRELRLLK
Median pulse duration of tyrosine recognition by PS610 (PS610): 0.69 s | Median interpulse duration (IPD) of arginine recognition by PS621 (PS621): 10.05 s | Binding with the recognizer PS621 (PS621): binding

YRIAFAYPDDDK (YRIAFAYPDDDK-NH2; not fully specified (residue 2); also: all synthetic peptides contained C-terminal Fmoc-azidolysine) [QP1030]
Pulse Width (PS610): 0.77 s

YRSDMAELRLLK (YRELRLLK) [P38MAPKa peptide with symmetric dimethylarginine at position 2]
Median pulse duration of tyrosine recognition by PS610 (PS610): 1.48 s | Binding with the recognizer PS621 (PS621): no binding
